Data as given in patent US20110033476A1 (published 2011).

Legend:
[1] = target: M2 protein of influenza A/Puerto Rico/8/34 (H1N1) (Influenza A virus A/Puerto Rico/8/34 (H1N1)) (UniProt P06821); assay: surface plasmon resonance, Fab binding to virus
[2] = target: M2 protein of influenza A/Puerto Rico/8/34 (H1N1) (Influenza A virus A/Puerto Rico/8/34 (H1N1)) (UniProt P06821); assay: ELISA on purified A/Puerto Rico/8/34 virus coated on wells (FIG. 14a)
[3] = target: T1, M2 protein of influenza A/Puerto Rico/8/34 (H1N1) (Influenza A virus A/Puerto Rico/8/34 …, UniProt P06821 1-97); assay: ELISA on influenza virus, crude supernatant (FIG. 9)
T1 construct: whole, on cells
T1 sequence (P06821 whole entry): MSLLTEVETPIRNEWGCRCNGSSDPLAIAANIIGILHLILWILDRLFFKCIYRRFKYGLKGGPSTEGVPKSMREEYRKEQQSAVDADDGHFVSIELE

Chain of M2 protein of influenza A/Puerto Rico/8/34 (H1N1) (Influenza A virus A/Puerto Rico/8/34 (H1N1)) (P06821 whole entry): as above

Molecule	Kd [1] [nM]	koff [1] [s⁻¹]	kon [1] [M⁻¹ s⁻¹]	EC50 [2] [µg/mL]	binding result [3]
TCN-032 Fab	3.2	0.0023	740000		
TCN-032 (antibody)				0.1	
TCN-031 (antibody)				0.1	
TCN-031 Fab	14	0.014	1e+06		
23K12 (antibody, V domains shown) VH: EVQLVESGGGLVQPGGSLRISCAASGFTVSSNYMSWVRQAPGKGLEWVSVIYSGGSTYYADSVKGRFSFSRDNSKNTVFLQMNSLRAEDTAVYYCARCLSRMRGYGLDVWGQGTTVTVS VL: DIQMTQSPSSLSASVGDRVTITCRTSQSISSYLNWYQQKPGKAPKLLIYAASSLQSGVPSRFSGSGSGTDFTLTISGLQPEDFATYYCQQSYSMPAFGQGTKLEIK					binds
